To fix the notation:
B1: Apobec3G-GFP MAPPIT bait (pCEL-Apobec3G-GFP) [human] / Apobec3G MAPPIT prey (pMG2-Apobec3G) [human] (parent)
chain 1: MKPHFRNTVERMYRDTFSYNFYNRPILSRRNTVWLCYEVKTKGPSRPPLDAKIFRGQVYSELKYHPEMRFFHWFSKWRKLHRDQEYEVTWYISWSPCTKCTRDMATFLAEDPKVTLTIFVARLYYFWDPDYQEALRSLCQKRDGPRATMKIMNYDEFQHCWSKFVYSQRELFEPWNNLPKYYILLHIMLGEILRHSMDPPTFTFNFNNEPWVRGRHETYLCYEVERMHNDTWVLLNQRRGFLCNQAPHKHGFLEGRHAELCFLDVIPFWKLDLDQDYRVTCFTSWSPCFSCAQEMAKFISKNKHVSLCIFTARIYDDQGRCQEGLRTLAEAGAKISIMTYSEFKHCWDTFVDHQGCPFQPWDGLDEHSQDLSGRLRAILQNQEN
chain 2: B1 chain 1

Experimental findings from PMC3438196 are described below.

The variants in this assay derive from B1. The assay is described as follows: MAPPIT. The settings on record: with Apobec3G MAPPIT prey (pMG2-Apobec3G) [human].
With chain 1 W94R, the percent of parent is 14 % of WT.
Next, chain 1 R78W: 18 % of WT; chain 1 Y222N: 7 % of WT; chain 1 E191V: 40 % of WT.
Next, chain 1 D128G: 47 % of WT.
Next, chain 1 W175R: 28 % of WT; chain 1 R30L: 10 % of WT; chain 1 W269G: 68 % of WT.
With chain 1 K270E, the percent of parent is 54 % of WT.
chain 1 R24G: the percent of parent is 5 % of WT.
To chain 1 K63R belongs 5 % of WT.
